Test results from patent publication US20240317834A1, “COMPOSITIONS AND METHODS FOR NEUROLOGICAL DISEASES” (CODA BIOTHERAPEUTICS, INC., priority 2020, published 2024).
Residue numbers refer to the chain shown, from its start. Names and notes keep the numbering of the source.

Tested on: Lenti-X 293T cells
Experiment: YFP fluorescence quenching anion reporter plate reader assay of engineered receptors stimulated with acetylcholine or a non-native ligand
Assay type: cell-based
Details: for percent quench of YFP fluorescence, 10 uM ach: acetylcholine 10 uM; for percent quench of YFP fluorescence, 100 uM ach: acetylcholine 100 uM; for percent quench of YFP fluorescence, 1 mM ach: acetylcholine 1 mM; for percent quench of YFP fluorescence, 3 mM ach: acetylcholine 3 mM
In short: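 Lenti-X 293T cells carrying a YFP anion reporter were transiently transfected with channel DNA and assayed the next day in HEPES-buffered ECS at pH 7.2. Ligand (acetylcholine or non-native ligand) was added in NaI-substituted ECS. Percent quench was the mean of the last 10 s relative to the 15 s pre-addition baseline.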

B1: CODA377: engineered chimeric LGIC receptor, S172D in SEQ ID NO: 33 (protein)
chain: MRCSPGGVWLALAASLLHVSLQGEFQRKLYKELVKNYNPLERPVANDSQPLTVYFSLSLLQIMDVDEKNQVLTTNIWLQMSWTDHYLQWNVSEYPGVKTVRFPDGQIWKPDILLYNSADERFDATFHTNVLVNSSGHCQYLPPGIFKSSCPMDLKNFPMDVQTCKLKFGSWDYGGWSLDLQMQEADISGYIPNGEWDLVGIPGKRSERFYECCKEPYPDVTFTVTMRRRMGYYLIQMYIPSLLIVILSWISFWINMDAAPARVGLGITTVLTMTTQSSGSRASLPKVSYVKAIDIWMAVCLLFVFSALLEYAAVNFVSRQHKELLRFRRKRRHHKSPMLNLFQEDEAGEGRFNFSAYGMGPACLQAKDGISVKGANNSNTTNPPPAPSKSPEEMRKLFIQRAKKIDKISRIGFPMAFLIFNMFYWIIYKIVRREDVHNQ
modifications: synthetic sequence of chimeric LGIC
1 nM CNL001, first column
  YFP fluorescence quenching using CNL001: 67.544%
1 nM CNL001, second column
  YFP fluorescence quenching using CNL001: 74.209%
1 nM brd
  YFP fluorescence quenching using TC-5619/Bradanicline: 0.77%
3 nM brd
  YFP fluorescence quenching using TC-5619/Bradanicline: −4.59%
3 nM var, first column
  YFP fluorescence quenching using Varenicline: −3.433
3 nM var, second column
  YFP fluorescence quenching using Varenicline: −5.737
10 nM CNL001, first column
  YFP fluorescence quenching using CNL001: 74.346%
10 nM CNL001, second column
  YFP fluorescence quenching using CNL001: 75.816%
10 nM brd
  YFP fluorescence quenching using TC-5619/Bradanicline: 0.06%
30 nM brd
  YFP fluorescence quenching using TC-5619/Bradanicline: −10.48%
30 nM fac
  YFP fluorescence quenching using Facinicline: 4.93
30 nM var, first column
  YFP fluorescence quenching using Varenicline: −5.319
30 nM var, second column
  YFP fluorescence quenching using Varenicline: −6.175
50 nM CNL001, first column
  YFP fluorescence quenching using CNL001: 77.068%
50 nM CNL001, second column
  YFP fluorescence quenching using CNL001: 76.99%
50 nM abt
  YFP fluorescence quenching using ABT-126: −1.53%
100 nM CNL001, first column
  YFP fluorescence quenching using CNL001: 79.352%
100 nM CNL001, second column
  YFP fluorescence quenching using CNL001: 77.865%
100 nM CNL002
  YFP fluorescence quenching using CNL002: 59.35%
100 nM abt
  YFP fluorescence quenching using ABT-126: 18.18%
100 nM azd0328
  YFP fluorescence quenching using AZD-0328: 65.04%
100 nM brd
  YFP fluorescence quenching using TC-5619/Bradanicline: 0.25%
300 nM abt
  YFP fluorescence quenching using ABT-126: 59.15%
300 nM azd0328
  YFP fluorescence quenching using AZD-0328: 81.73%
300 nM brd
  YFP fluorescence quenching using TC-5619/Bradanicline: −10.61%
300 nM fac
  YFP fluorescence quenching using Facinicline: 84.13
300 nM var, first column
  YFP fluorescence quenching using Varenicline: −4.135
300 nM var, second column
  YFP fluorescence quenching using Varenicline: −8.614
500 nM var, first column
  YFP fluorescence quenching using Varenicline: −6.062
500 nM var, second column
  YFP fluorescence quenching using Varenicline: −6.125
1 uM CNL001, first column
  YFP fluorescence quenching using CNL001: 80.272%
1 uM CNL001, second column
  YFP fluorescence quenching using CNL001: 79.432%
1 uM CNL002
  YFP fluorescence quenching using CNL002: 79.26%
1 uM abt
  YFP fluorescence quenching using ABT-126: 72.28%
1 uM brd
  YFP fluorescence quenching using TC-5619/Bradanicline: 3.82%
1 uM tc6987
  YFP fluorescence quenching using TC-6987: −9.74
1 uM var, first column
  YFP fluorescence quenching using Varenicline: −14.134
1 uM var, second column
  YFP fluorescence quenching using Varenicline: −15.373
3 uM tc6987
  YFP fluorescence quenching using TC-6987: −14.04
5 uM tc6987
  YFP fluorescence quenching using TC-6987: −0.95
10 uM fac
  YFP fluorescence quenching using Facinicline: 66.96
10 uM tc6987
  YFP fluorescence quenching using TC-6987: −7.41
30 uM CNL002
  YFP fluorescence quenching using CNL002: 79.96%
30 uM azd0328
  YFP fluorescence quenching using AZD-0328: 82.3%
30 uM fac
  YFP fluorescence quenching using Facinicline: 85.29
30 uM tc6987
  YFP fluorescence quenching using TC-6987: −16.12
50 uM tc6987
  YFP fluorescence quenching using TC-6987: −12.79
100 uM tc6987
  YFP fluorescence quenching using TC-6987: −11.77
300 uM tc6987
  YFP fluorescence quenching using TC-6987: −19.68
500 uM tc6987
  YFP fluorescence quenching using TC-6987: −17.02
TC-6683 30 nM
  percent quench of YFP fluorescence, 30 nM TC-6683: −20.23%
TC-6683 300 nM
  percent quench of YFP fluorescence, 300 nM TC-6683: −13.94%
TC-6683 3 uM
  percent quench of YFP fluorescence, 3 uM TC-6683: −14.17%
TC-6683 30 uM
  percent quench of YFP fluorescence, 30 uM TC-6683: 1.86%
TC-6683 100 uM
  percent quench of YFP fluorescence, 100 uM TC-6683: 43.61%
  percent quench of YFP fluorescence, 10 uM ach: −3.19%
  percent quench of YFP fluorescence, 100 uM ach: 0.07%
  percent quench of YFP fluorescence, 1 mM ach: 71.7%
  percent quench of YFP fluorescence, 3 mM ach: 76.95%

B2: CODA405: engineered chimeric LGIC receptor, Y210V in SEQ ID NO: 33 (protein)
chain: B1 chain with D172S, Y210V
modifications: synthetic sequence of chimeric LGIC
1 nM CNL001, first column
  YFP fluorescence quenching using CNL001: −16.246%
1 nM CNL001, second column
  YFP fluorescence quenching using CNL001: −4.217%
3 nM brd
  YFP fluorescence quenching using TC-5619/Bradanicline: 9.92%
3 nM var, first column
  YFP fluorescence quenching using Varenicline: 7.317
3 nM var, second column
  YFP fluorescence quenching using Varenicline: 7.643
10 nM CNL001, first column
  YFP fluorescence quenching using CNL001: −6.142%
10 nM CNL001, second column
  YFP fluorescence quenching using CNL001: −10.003%
30 nM brd
  YFP fluorescence quenching using TC-5619/Bradanicline: 4.37%
30 nM fac
  YFP fluorescence quenching using Facinicline: −26.25
30 nM var, first column
  YFP fluorescence quenching using Varenicline: 9.457
30 nM var, second column
  YFP fluorescence quenching using Varenicline: 9.134
50 nM CNL001, first column
  YFP fluorescence quenching using CNL001: −11.054%
50 nM CNL001, second column
  YFP fluorescence quenching using CNL001: −10.06%
50 nM abt
  YFP fluorescence quenching using ABT-126: −2.9%
100 nM CNL001, first column
  YFP fluorescence quenching using CNL001: −3.832%
100 nM CNL001, second column
  YFP fluorescence quenching using CNL001: −3.784%
100 nM CNL002
  YFP fluorescence quenching using CNL002: −14.3%
100 nM abt
  YFP fluorescence quenching using ABT-126: −2.06%
100 nM azd0328
  YFP fluorescence quenching using AZD-0328: −8.13%
300 nM abt
  YFP fluorescence quenching using ABT-126: −0.19%
300 nM azd0328
  YFP fluorescence quenching using AZD-0328: −3.35%
300 nM brd
  YFP fluorescence quenching using TC-5619/Bradanicline: 59%
300 nM fac
  YFP fluorescence quenching using Facinicline: −23.52
300 nM var, first column
  YFP fluorescence quenching using Varenicline: 15.503
300 nM var, second column
  YFP fluorescence quenching using Varenicline: 11.954
500 nM var, first column
  YFP fluorescence quenching using Varenicline: 13.427
500 nM var, second column
  YFP fluorescence quenching using Varenicline: 10.784
1 uM CNL001, first column
  YFP fluorescence quenching using CNL001: 1.129%
1 uM CNL001, second column
  YFP fluorescence quenching using CNL001: 7.1%
1 uM CNL002
  YFP fluorescence quenching using CNL002: −7.56%
1 uM abt
  YFP fluorescence quenching using ABT-126: −3.64%
1 uM tc6987
  YFP fluorescence quenching using TC-6987: −22.63
1 uM var, first column
  YFP fluorescence quenching using Varenicline: 9.032
1 uM var, second column
  YFP fluorescence quenching using Varenicline: 11.591
10 uM tc6987
  YFP fluorescence quenching using TC-6987: −23.03
30 uM CNL002
  YFP fluorescence quenching using CNL002: −2.02%
30 uM azd0328
  YFP fluorescence quenching using AZD-0328: −2.86%
30 uM fac
  YFP fluorescence quenching using Facinicline: 0.83
500 uM tc6987
  YFP fluorescence quenching using TC-6987: −40.88
  percent quench of YFP fluorescence, 10 uM ach: −6.31%
  percent quench of YFP fluorescence, 100 uM ach: −14.48%
  percent quench of YFP fluorescence, 1 mM ach: −2.82%
  percent quench of YFP fluorescence, 3 mM ach: 1.06%
